Test results: the supplement of paper PMC10567573

B1: SMAD6 (parent)
chain: SGLVRRLWRSRVVPDREEGGSGGG
B2: SMG5 (parent)
chain: QEKLQVLMAEGLLPAVKVFLDWLR
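Also: lentivirally expressed fusions sorted by FACS into six bins by GFP to DsRed ratio, PSI derived from sequencing read proportions per bin multiplied by bin number.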

Variants of: B1
Assay: protein stability index of a GFP-peptide fusion (GPS, HEK-293T) (PSI 1-6); higher = more stable
Conditions: c terminus: a fixed tail appended
Work on SGLVRRLWRSRVVPDRYEGGSGGG yielded a protein stability index of 1.19.
For SGLVRRLWRSRVVPDRGEGGSGGG, the protein stability index was 3.86.
Variant SGMVRRLWRSRVVPDREEGGSGGG has a protein stability index of 4.06.
With SGTVRRLWRSRVVPDREEGGSGGG the protein stability index was 3.54.
SGLVRRLWRSRVVPDMEEGGSGGG showed a protein stability index of 3.4.
For SGLVRRLWRSRVVPDREEGGSGPG, the protein stability index was 3.89.
SGLVRRLWRSRVVPDREEGGSGDG showed a protein stability index of 5.01.
With SGLVRRLWRSRVVPDREEGGSGHG the protein stability index was 3.7.
For SGLVRRLWRSGVVPDREEGGSGGG, the protein stability index was 4.98.
For SGLVRRLWRSRVVPDREEPGSGGG, the protein stability index was 4.07.
In the case of SGLVRRLWRSRVVPDREEKGSGGG, the protein stability index is reported as 4.06.
With SGLVRRLWRSRVVPDREEWGSGGG the protein stability index was 2.79.
For SGLVRRLWRSRDVPDREEGGSGGG, the protein stability index was 4.76.
SGLVRRLWRSRYVPDREEGGSGGG showed a protein stability index of 3.1.
SPLVRRLWRSRVVPDREEGGSGGG showed a protein stability index of 4.79.
Variant SELVRRLWRSRVVPDREEGGSGGG has a protein stability index of 2.35.
SMLVRRLWRSRVVPDREEGGSGGG showed a protein stability index of 3.19.
In the case of SKLVRRLWRSRVVPDREEGGSGGG, the protein stability index is reported as 3.6.
Work on SVLVRRLWRSRVVPDREEGGSGGG yielded a protein stability index of 3.03.
Variant SFLVRRLWRSRVVPDREEGGSGGG has a protein stability index of 2.93.
SGLVRRLWRSRVVPNREEGGSGGG showed a protein stability index of 3.96.
Work on SGLVRRLWRSRVVPHREEGGSGGG yielded a protein stability index of 3.55.
Variant SGLVRRLWRSRVVPEREEGGSGGG has a protein stability index of 4.31.
Variant SGLVRRLWRSRVVPMREEGGSGGG has a protein stability index of 3.01.
With SGLVRRLWRWRVVPDREEGGSGGG the protein stability index was 2.6.
SGLVRRLWRFRVVPDREEGGSGGG gave a protein stability index of 2.4.
For SGLVRRLWGSRVVPDREEGGSGGG, the protein stability index was 3.27.
With SGLVRRLWPSRVVPDREEGGSGGG the protein stability index was 4.85.
For IGLVRRLWRSRVVPDREEGGSGGG, the protein stability index was 2.92.
For SGLVRRQWRSRVVPDREEGGSGGG, the protein stability index was 4.4.
For SGLVRRIWRSRVVPDREEGGSGGG, the protein stability index was 4.14.
For SGLVRRLWRSRVKPDREEGGSGGG, the protein stability index was 4.13.
SGLVRRLWRSRVLPDREEGGSGGG gave a protein stability index of 3.99.
Work on SGLVRRLWRSRVVPDREDGGSGGG yielded a protein stability index of 3.82.
Variant SGLVRRLWRSRVVPDREFGGSGGG has a protein stability index of 2.68.
Work on SGLVRRLNRSRVVPDREEGGSGGG yielded a protein stability index of 5.26.
For SGLVRRLQRSRVVPDREEGGSGGG, the protein stability index was 5.
SGLVRRLKRSRVVPDREEGGSGGG gave a protein stability index of 4.64.
SGLVRRLWRSRVVPDREEGGDGGG gave a protein stability index of 4.54.
SGLVRRLWRSRVVPDREEGGEGGG showed a protein stability index of 3.53.
With SGLVRRLWRSRVVPDREEGGYGGG the protein stability index was 3.09.
In the case of SGLVMRLWRSRVVPDREEGGSGGG, the protein stability index is reported as 3.3.
SGLVHRLWRSRVVPDREEGGSGGG gave a protein stability index of 4.21.
For SGLVCRLWRSRVVPDREEGGSGGG, the protein stability index was 2.46.
Work on SGLVQRLWRSRVVPDREEGGSGGG yielded a protein stability index of 3.72.
Work on SGLVIRLWRSRVVPDREEGGSGGG yielded a protein stability index of 2.4.
Work on SGLVRRLWRSRVVPDREEGNSGGG yielded a protein stability index of 3.11.
For SGLVRRLWRSRVVPDREEGISGGG, the protein stability index was 3.06.
For SGLVRRLWRSRVVPDREEGRSGGG, the protein stability index was 4.04.
With SGLVRRLWRSRVVPDREEGCSGGG the protein stability index was 3.04.
SGLVRRLWRSRVVPDREEGGSRGG gave a protein stability index of 4.48.
SGLVRCLWRSRVVPDREEGGSGGG gave a protein stability index of 3.46.

Variants of: B2
Assay: as above
Conditions: c terminus: a fixed tail appended
With MEKLQVLMAEGLLPAVKVFLDWLR the protein stability index was 2.37.
For IEKLQVLMAEGLLPAVKVFLDWLR, the protein stability index was 2.95.
For GEKLQVLMAEGLLPAVKVFLDWLR, the protein stability index was 2.22.
EEKLQVLMAEGLLPAVKVFLDWLR showed a protein stability index of 3.01.
Work on DEKLQVLMAEGLLPAVKVFLDWLR yielded a protein stability index of 2.79.
In the case of PEKLQVLMAEGLLPAVKVFLDWLR, the protein stability index is reported as 2.09.
SEKLQVLMAEGLLPAVKVFLDWLR gave a protein stability index of 2.88.
CEKLQVLMAEGLLPAVKVFLDWLR showed a protein stability index of 1.53.
Variant REKLQVLMAEGLLPAVKVFLDWLR has a protein stability index of 1.57.
KEKLQVLMAEGLLPAVKVFLDWLR gave a protein stability index of 4.12.
LEKLQVLMAEGLLPAVKVFLDWLR gave a protein stability index of 3.5.
With WEKLQVLMAEGLLPAVKVFLDWLR the protein stability index was 1.95.
HEKLQVLMAEGLLPAVKVFLDWLR gave a protein stability index of 1.45.
In the case of NEKLQVLMAEGLLPAVKVFLDWLR, the protein stability index is reported as 1.62.
Work on YEKLQVLMAEGLLPAVKVFLDWLR yielded a protein stability index of 2.81.
Variant AEKLQVLMAEGLLPAVKVFLDWLR has a protein stability index of 2.23.
Work on FEKLQVLMAEGLLPAVKVFLDWLR yielded a protein stability index of 2.89.
Work on VEKLQVLMAEGLLPAVKVFLDWLR yielded a protein stability index of 2.18.
With TEKLQVLMAEGLLPAVKVFLDWLR the protein stability index was 1.96.
For QEELQVLMAEGLLPAVKVFLDWLR, the protein stability index was 2.25.
Variant QEALQVLMAEGLLPAVKVFLDWLR has a protein stability index of 4.03.
QEDLQVLMAEGLLPAVKVFLDWLR gave a protein stability index of 2.02.
QECLQVLMAEGLLPAVKVFLDWLR gave a protein stability index of 2.03.
For QRKLQVLMAEGLLPAVKVFLDWLR, the protein stability index was 2.37.
Work on QNKLQVLMAEGLLPAVKVFLDWLR yielded a protein stability index of 2.86.
In the case of QFKLQVLMAEGLLPAVKVFLDWLR, the protein stability index is reported as 2.2.
Work on QLKLQVLMAEGLLPAVKVFLDWLR yielded a protein stability index of 1.44.
QQKLQVLMAEGLLPAVKVFLDWLR gave a protein stability index of 2.92.
For QYKLQVLMAEGLLPAVKVFLDWLR, the protein stability index was 2.15.
Variant QHKLQVLMAEGLLPAVKVFLDWLR has a protein stability index of 3.82.
Variant QVKLQVLMAEGLLPAVKVFLDWLR has a protein stability index of 2.56.
In the case of QWKLQVLMAEGLLPAVKVFLDWLR, the protein stability index is reported as 1.56.
Variant QAKLQVLMAEGLLPAVKVFLDWLR has a protein stability index of 2.31.
Variant QIKLQVLMAEGLLPAVKVFLDWLR has a protein stability index of 2.23.
QSKLQVLMAEGLLPAVKVFLDWLR gave a protein stability index of 3.11.
For QPKLQVLMAEGLLPAVKVFLDWLR, the protein stability index was 2.96.
QKKLQVLMAEGLLPAVKVFLDWLR showed a protein stability index of 2.38.
Variant QDKLQVLMAEGLLPAVKVFLDWLR has a protein stability index of 2.26.
For QTKLQVLMAEGLLPAVKVFLDWLR, the protein stability index was 2.68.
Work on QMKLQVLMAEGLLPAVKVFLDWLR yielded a protein stability index of 2.83.
QGKLQVLMAEGLLPAVKVFLDWLR showed a protein stability index of 1.6.
For QCKLQVLMAEGLLPAVKVFLDWLR, the protein stability index was 2.47.
